Data on one substance can be found in article PMC6588657 (2018).

For this assay, the target named is Full-length Drosophila ATL (Drosophila) (UniProt Q9VC57).
Chain of Full-length Drosophila ATL (Drosophila) (Q9VC57 whole entry): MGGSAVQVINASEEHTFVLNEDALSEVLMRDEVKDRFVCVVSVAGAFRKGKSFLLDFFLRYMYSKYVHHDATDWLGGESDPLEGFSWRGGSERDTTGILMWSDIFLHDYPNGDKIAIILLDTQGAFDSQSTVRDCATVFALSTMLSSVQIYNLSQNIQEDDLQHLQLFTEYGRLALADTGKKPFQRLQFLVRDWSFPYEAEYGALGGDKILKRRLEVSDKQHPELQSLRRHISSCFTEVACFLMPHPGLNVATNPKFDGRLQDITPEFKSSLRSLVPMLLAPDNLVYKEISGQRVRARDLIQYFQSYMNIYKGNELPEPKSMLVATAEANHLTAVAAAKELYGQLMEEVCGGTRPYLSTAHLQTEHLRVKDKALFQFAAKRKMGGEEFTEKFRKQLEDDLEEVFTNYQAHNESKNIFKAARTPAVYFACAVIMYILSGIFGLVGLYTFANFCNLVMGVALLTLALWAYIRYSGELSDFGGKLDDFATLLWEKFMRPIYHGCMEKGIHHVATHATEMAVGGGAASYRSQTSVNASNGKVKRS

dmLnp-NT-Flag-GST (domain or fragment) showed a GTP-dependent fusion of dmATL donor and acceptor vesicles (NBD dequenching), dmLnp-NT at 5 times the concentration of dmATL, against samples without Lnp of 50%.
